We go through 8 proteins from US20210238260.

Sequences and labels used below:
B1: FIXa-K247N/N249S/R318Y/R338E/T343R/E410N (protein)
chain 1: YNSGKLEEFVQGNLERECMEEKCSFEEAREVFENTERTTEFWKQYVDGDQCESNPCLNGGSCKDDINSYECWCPFGFEGKNCELDVTCNIKNGRCEQFCKNSADNKVVCSCTEGYRLAENQKSCEPAVPFPCGRVSVSQTSKLTR
chain 2: VVGGEDAKPGQFPWQVVLNGKVDAFCGGSIVNEKWIVTAAHCVETGVKITVVAGEHNIEETEHTEQNRSVIRIIPHHNYNAAINKYNHDIALLELDEPLVLNSYVTPICIADKEYTNIFLKFGSGYVSGWGRVFHKGYSALVLQYLRVPLVDRATCLESTKFRIYNNMFCAGFHEGGRDSCQGDSGGPHVTEVEGTSFLTGIISWGEECAMKGKYGIYTKVSRYVNWIKNKTKLT
B2: FIXa-K247N/N249S/R318Y/T343R/R403E (protein)
chain 1: YNSGKLEEFVQGNLERECMEEKCSFEEAREVFENTERTTEFWKQYVDGDQCESNPCLNGGSCKDDINSYECWCPFGFEGKNCELDVTCNIKNGRCEQFCKNSADNKVVCSCTEGYRLAENQKSCEPAVPFPCGRVSVSQTSKLTR
chain 2: VVGGEDAKPGQFPWQVVLNGKVDAFCGGSIVNEKWIVTAAHCVETGVKITVVAGEHNIEETEHTEQNRSVIRIIPHHNYNAAINKYNHDIALLELDEPLVLNSYVTPICIADKEYTNIFLKFGSGYVSGWGRVFHKGYSALVLQYLRVPLVDRATCLRSTKFRIYNNMFCAGFHEGGRDSCQGDSGGPHVTEVEGTSFLTGIISWGEECAMKGKYGIYTKVSEYVNWIKEKTKLT
B3: FIXa-Y155F/K247N/N249S/R318Y/T343R/E410N (protein)
chain 1: YNSGKLEEFVQGNLERECMEEKCSFEEAREVFENTERTTEFWKQYVDGDQCESNPCLNGGSCKDDINSYECWCPFGFEGKNCELDVTCNIKNGRCEQFCKNSADNKVVCSCTEGYRLAENQKSCEPAVPFPCGRVSVSQTSKLTR
chain 2: VVGGEDAKPGQFPWQVVLNGKVDAFCGGSIVNEKWIVTAAHCVETGVKITVVAGEHNIEETEHTEQNRSVIRIIPHHNYNAAINKYNHDIALLELDEPLVLNSYVTPICIADKEYTNIFLKFGSGYVSGWGRVFHKGYSALVLQYLRVPLVDRATCLRSTKFRIYNNMFCAGFHEGGRDSCQGDSGGPHVTEVEGTSFLTGIISWGEECAMKGKYGIYTKVSRYVNWIKNKTKLT
B4: FIXa-Y155F/K247N/N249S/R318Y/T343R/R403E/E410N (protein)
chain 1: YNSGKLEEFVQGNLERECMEEKCSFEEAREVFENTERTTEFWKQYVDGDQCESNPCLNGGSCKDDINSYECWCPFGFEGKNCELDVTCNIKNGRCEQFCKNSADNKVVCSCTEGYRLAENQKSCEPAVPFPCGRVSVSQTSKLTR
chain 2: VVGGEDAKPGQFPWQVVLNGKVDAFCGGSIVNEKWIVTAAHCVETGVKITVVAGEHNIEETEHTEQNRSVIRIIPHHNYNAAINKYNHDIALLELDEPLVLNSYVTPICIADKEYTNIFLKFGSGYVSGWGRVFHKGYSALVLQYLRVPLVDRATCLRSTKFRIYNNMFCAGFHEGGRDSCQGDSGGPHVTEVEGTSFLTGIISWGEECAMKGKYGIYTKVSEYVNWIKNKTKLT
B5: FIXa-Y155F/K247N/N249S/R318Y/T343R/R403E (protein)
chain 1: YNSGKLEEFVQGNLERECMEEKCSFEEAREVFENTERTTEFWKQYVDGDQCESNPCLNGGSCKDDINSYECWCPFGFEGKNCELDVTCNIKNGRCEQFCKNSADNKVVCSCTEGYRLAENQKSCEPAVPFPCGRVSVSQTSKLTR
chain 2: VVGGEDAKPGQFPWQVVLNGKVDAFCGGSIVNEKWIVTAAHCVETGVKITVVAGEHNIEETEHTEQNRSVIRIIPHHNYNAAINKYNHDIALLELDEPLVLNSYVTPICIADKEYTNIFLKFGSGYVSGWGRVFHKGYSALVLQYLRVPLVDRATCLRSTKFRIYNNMFCAGFHEGGRDSCQGDSGGPHVTEVEGTSFLTGIISWGEECAMKGKYGIYTKVSEYVNWIKEKTKLT
B6: FIXa-K247N/N249S/R318Y/T343R/E410N (protein)
chain 1: YNSGKLEEFVQGNLERECMEEKCSFEEAREVFENTERTTEFWKQYVDGDQCESNPCLNGGSCKDDINSYECWCPFGFEGKNCELDVTCNIKNGRCEQFCKNSADNKVVCSCTEGYRLAENQKSCEPAVPFPCGRVSVSQTSKLTR
chain 2: VVGGEDAKPGQFPWQVVLNGKVDAFCGGSIVNEKWIVTAAHCVETGVKITVVAGEHNIEETEHTEQNRSVIRIIPHHNYNAAINKYNHDIALLELDEPLVLNSYVTPICIADKEYTNIFLKFGSGYVSGWGRVFHKGYSALVLQYLRVPLVDRATCLRSTKFRIYNNMFCAGFHEGGRDSCQGDSGGPHVTEVEGTSFLTGIISWGEECAMKGKYGIYTKVSRYVNWIKNKTKLT
B7: FIXa-K247N/N249S/R318Y/T343R/R403E/E410N (protein)
chain 1: YNSGKLEEFVQGNLERECMEEKCSFEEAREVFENTERTTEFWKQYVDGDQCESNPCLNGGSCKDDINSYECWCPFGFEGKNCELDVTCNIKNGRCEQFCKNSADNKVVCSCTEGYRLAENQKSCEPAVPFPCGRVSVSQTSKLTR
chain 2: VVGGEDAKPGQFPWQVVLNGKVDAFCGGSIVNEKWIVTAAHCVETGVKITVVAGEHNIEETEHTEQNRSVIRIIPHHNYNAAINKYNHDIALLELDEPLVLNSYVTPICIADKEYTNIFLKFGSGYVSGWGRVFHKGYSALVLQYLRVPLVDRATCLRSTKFRIYNNMFCAGFHEGGRDSCQGDSGGPHVTEVEGTSFLTGIISWGEECAMKGKYGIYTKVSEYVNWIKNKTKLT
B8: FIXa-Y155F/K247N/N249S/R338E/E410N (protein)
chain 1: YNSGKLEEFVQGNLERECMEEKCSFEEAREVFENTERTTEFWKQYVDGDQCESNPCLNGGSCKDDINSYECWCPFGFEGKNCELDVTCNIKNGRCEQFCKNSADNKVVCSCTEGYRLAENQKSCEPAVPFPCGRVSVSQTSKLTR
chain 2: VVGGEDAKPGQFPWQVVLNGKVDAFCGGSIVNEKWIVTAAHCVETGVKITVVAGEHNIEETEHTEQNRSVIRIIPHHNYNAAINKYNHDIALLELDEPLVLNSYVTPICIADKEYTNIFLKFGSGYVSGWGRVFHKGRSALVLQYLRVPLVDRATCLESTKFTIYNNMFCAGFHEGGRDSCQGDSGGPHVTEVEGTSFLTGIISWGEECAMKGKYGIYTKVSRYVNWIKNKTKLT

Factor X (FX), P00742, sequence (P00742 whole entry, looked up): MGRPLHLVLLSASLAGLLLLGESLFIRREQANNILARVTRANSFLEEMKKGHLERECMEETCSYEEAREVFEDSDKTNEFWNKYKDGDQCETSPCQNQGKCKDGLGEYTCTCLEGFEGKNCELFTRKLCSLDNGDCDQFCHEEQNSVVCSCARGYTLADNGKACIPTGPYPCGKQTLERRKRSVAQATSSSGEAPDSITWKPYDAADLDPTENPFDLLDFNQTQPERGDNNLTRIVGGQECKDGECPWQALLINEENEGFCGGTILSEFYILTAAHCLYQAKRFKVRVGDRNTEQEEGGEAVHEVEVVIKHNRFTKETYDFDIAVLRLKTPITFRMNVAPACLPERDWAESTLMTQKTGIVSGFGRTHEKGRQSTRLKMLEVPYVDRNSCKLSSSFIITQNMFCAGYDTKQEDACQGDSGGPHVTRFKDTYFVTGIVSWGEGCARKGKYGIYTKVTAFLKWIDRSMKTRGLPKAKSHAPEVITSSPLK

The series concerns the target Factor X (FX), P00742.
For B1, the “% of WT kcat/KM” value worked out at 687%; the KM was 0.0328 µM; the kcat (s^-1) of FX activation by FIXa variant in the Xase complex (FVIIIa, PC/PS vesicles, Ca2+), fluorogenic FXa read-out is 8.8 s⁻¹; the kcat/KM for FX activation (Xase: FVIIIa, PC/PS vesicles, Ca2+) was 3.2e+08 M⁻¹ s⁻¹.

Regarding B2, the “% of WT kcat/KM” value was determined as 84%; the Michaelis-Menten constant (KM) came to 0.105 µM; the kcat (s^-1) of FX activation by FIXa variant in the Xase complex (FVIIIa, PC/PS vesicles, Ca2+), fluorogenic FXa read-out was 3.7 s⁻¹; the kcat/KM for FX activation (Xase: FVIIIa, PC/PS vesicles, Ca2+) is 3.9e+07 M⁻¹ s⁻¹.

Regarding B3, the “% of WT kcat/KM” value is 668%; the Michaelis constant (KM) was 0.0381 µM; the kcat (s^-1) of FX activation by FIXa variant in the Xase complex (FVIIIa, PC/PS vesicles, Ca2+), fluorogenic FXa read-out turned out to be 8.1 s⁻¹; the kcat/KM for FX activation (Xase: FVIIIa, PC/PS vesicles, Ca2+) came to 3.1e+08 M⁻¹ s⁻¹.

Turning to B4, the “% of WT kcat/KM” value worked out at 350%; the Michaelis constant (KM) was 0.0606 µM; the kcat (s^-1) of FX activation by FIXa variant in the Xase complex (FVIIIa, PC/PS vesicles, Ca2+), fluorogenic FXa read-out came to 9 s⁻¹; the kcat/KM for FX activation (Xase: FVIIIa, PC/PS vesicles, Ca2+) was found to be 1.6e+08 M⁻¹ s⁻¹.

Take B5: the “% of WT kcat/KM” value was 276%; the KM came out at 0.0605 µM; the kcat (s^-1) of FX activation by FIXa variant in the Xase complex (FVIIIa, PC/PS vesicles, Ca2+), fluorogenic FXa read-out was determined as 7.5 s⁻¹; the kcat/KM for FX activation (Xase: FVIIIa, PC/PS vesicles, Ca2+) is 1.3e+08 M⁻¹ s⁻¹.

For B6, the “% of WT kcat/KM” value is on record as 439%; the KM came out at 0.0401 µM; the kcat (s^-1) of FX activation by FIXa variant in the Xase complex (FVIIIa, PC/PS vesicles, Ca2+), fluorogenic FXa read-out was 6.1 s⁻¹; the kcat/KM for FX activation (Xase: FVIIIa, PC/PS vesicles, Ca2+) came out at 2e+08 M⁻¹ s⁻¹.

For B7, the “% of WT kcat/KM” value was 279%; the KM is 0.0805 µM; the kcat (s^-1) of FX activation by FIXa variant in the Xase complex (FVIIIa, PC/PS vesicles, Ca2+), fluorogenic FXa read-out worked out at 9.5 s⁻¹; the kcat/KM for FX activation (Xase: FVIIIa, PC/PS vesicles, Ca2+) worked out at 1.3e+08 M⁻¹ s⁻¹.

Turning to B8, the “% of WT kcat/KM” value was determined as 1009%; the Michaelis constant (KM) was found to be 0.0177 µM; the kcat (s^-1) of FX activation by FIXa variant in the Xase complex (FVIIIa, PC/PS vesicles, Ca2+), fluorogenic FXa read-out was 7.3 s⁻¹; the kcat/KM for FX activation (Xase: FVIIIa, PC/PS vesicles, Ca2+) is 4.7e+08 M⁻¹ s⁻¹.

One may read the KM as the substrate concentration at which the rate is half of its maximum.
